To fix the notation:
B1: glmS ribozyme (parent)
chain: AUAAAAGCGCCAGAACUACAGAAAUGUAGUUGACGAGGAGGAGGUUUAUCGAAUUUUCGGCGGAUGCCUCCAAA

± gives the standard error. This sample holds only a part of the variants without activity.

Common to all, as to conditions: with glucosamine-6-phosphate
Variants of B1 are the subject of series [1]. In words: self-cleavage kobs at 40 uM GlcN6P; higher = faster cleavage; RNA array. The essentials:
(§1)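 Over ~14 h at 37 °C, tiles were imaged as glucosamine-6-phosphate (40 μM to 10 mM) in HEPES/KCl/Mg(OAc)2 buffer flowed across sequenced MiSeq chips. The chips carried barcoded ribozyme variants transcribed in situ by E. coli RNA polymerase and tracked with a hybridised Cy3 probe. After normalisation to baseline and to non-cleaving reference variants, one- or two-exponential decay fits of per-tile medians gave kobs. kcat and KM followed from weighted Michaelis–Menten fits across concentrations.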

Series [2] covers variants of B1. In words: self-cleavage kobs at 160 uM GlcN6P; higher = faster cleavage; RNA array. The gist of the method:
as §1

In series [3] the parent is B1. In words: self-cleavage kobs at 2500 uM GlcN6P; higher = faster cleavage; RNA array. The essentials: as §1
Variants of B1 are the subject of series [4]. In words: self-cleavage kobs at 10000 uM GlcN6P; higher = faster cleavage; RNA array. The essentials:
as §1

Variants of B1 are the subject of series [5]. In words: self-cleavage kobs at 640 uM GlcN6P; higher = faster cleavage; RNA array. The gist of the method: as §1

For G13U G32A G37C A42C, in the series with glucosamine-6-phosphate [1], the “self-cleavage kobs at 40 uM GlcN6P” value is under 1e-05 s⁻¹. Further, in the series with glucosamine-6-phosphate [2], the “self-cleavage kobs at 160 uM GlcN6P” value was under 1e-05 s⁻¹. In addition, the “self-cleavage kobs at 2500 uM GlcN6P” value with glucosamine-6-phosphate [3] is under 1e-05 s⁻¹. Moreover, in the series with glucosamine-6-phosphate [4], the “self-cleavage kobs at 10000 uM GlcN6P” value was under 1e-05 s⁻¹.
On to G9A C16U A42G C50G, for which the “self-cleavage kobs at 40 uM GlcN6P” value with glucosamine-6-phosphate [1] worked out at 0.000108 ± 4.9e-05 s⁻¹.
A12U A52C: the “self-cleavage kobs at 40 uM GlcN6P” value in the series with glucosamine-6-phosphate [1] was under 1e-05 s⁻¹. Also, in the series with glucosamine-6-phosphate [4], the “self-cleavage kobs at 10000 uM GlcN6P” value was 4.23e-05 ± 1.8e-05 s⁻¹.
For G13A A15G C16G G32U A42C U46A U57A C68U, the “self-cleavage kobs at 40 uM GlcN6P” value with glucosamine-6-phosphate [1] was under 1e-05 s⁻¹.
Regarding A48U G60U C68U, the “self-cleavage kobs at 160 uM GlcN6P” value in the series with glucosamine-6-phosphate [2] is under 1e-05 s⁻¹. Further, the “self-cleavage kobs at 2500 uM GlcN6P” value in the series with glucosamine-6-phosphate [3] was under 1e-05 s⁻¹.
With C10U G40U, the “self-cleavage kobs at 40 uM GlcN6P” value with glucosamine-6-phosphate [1] is under 1e-05 s⁻¹. Moreover, in the series with glucosamine-6-phosphate [4], the “self-cleavage kobs at 10000 uM GlcN6P” value is under 1e-05 s⁻¹.
As for U31A G62U, the “self-cleavage kobs at 40 uM GlcN6P” value with glucosamine-6-phosphate [1] is under 1e-05 s⁻¹. The “self-cleavage kobs at 160 uM GlcN6P” value with glucosamine-6-phosphate [2] was under 1e-05 s⁻¹. Besides, the “self-cleavage kobs at 640 uM GlcN6P” value with glucosamine-6-phosphate [5] is under 1e-05 s⁻¹. Further, the “self-cleavage kobs at 10000 uM GlcN6P” value in the series with glucosamine-6-phosphate [4] is under 1e-05 s⁻¹.
For the variant A12U U45A U49G C50U G63U U69C, the “self-cleavage kobs at 40 uM GlcN6P” value with glucosamine-6-phosphate [1] was under 1e-05 s⁻¹. Further, the “self-cleavage kobs at 640 uM GlcN6P” value with glucosamine-6-phosphate [5] was under 1e-05 s⁻¹. Besides, the “self-cleavage kobs at 2500 uM GlcN6P” value in the series with glucosamine-6-phosphate [3] is under 1e-05 s⁻¹. The “self-cleavage kobs at 10000 uM GlcN6P” value with glucosamine-6-phosphate [4] is under 1e-05 s⁻¹.
For G9A C34U, the “self-cleavage kobs at 40 uM GlcN6P” value with glucosamine-6-phosphate [1] was under 1e-05 s⁻¹. Besides, in the series with glucosamine-6-phosphate [5], the “self-cleavage kobs at 640 uM GlcN6P” value was under 1e-05 s⁻¹. In the series with glucosamine-6-phosphate [4], the “self-cleavage kobs at 10000 uM GlcN6P” value is under 1e-05 s⁻¹.
Take C16A G44A: in the series with glucosamine-6-phosphate [1], the “self-cleavage kobs at 40 uM GlcN6P” value is under 1e-05 s⁻¹. The “self-cleavage kobs at 160 uM GlcN6P” value with glucosamine-6-phosphate [2] is under 1e-05 s⁻¹.
Turning to A6U A36U, in the series with glucosamine-6-phosphate [1], the “self-cleavage kobs at 40 uM GlcN6P” value was under 1e-05 s⁻¹. The “self-cleavage kobs at 160 uM GlcN6P” value with glucosamine-6-phosphate [2] was under 1e-05 s⁻¹. Further, in the series with glucosamine-6-phosphate [5], the “self-cleavage kobs at 640 uM GlcN6P” value was under 1e-05 s⁻¹. Besides, the “self-cleavage kobs at 2500 uM GlcN6P” value in the series with glucosamine-6-phosphate [3] was under 1e-05 s⁻¹. Moreover, the “self-cleavage kobs at 10000 uM GlcN6P” value with glucosamine-6-phosphate [4] is under 1e-05 s⁻¹.
On to G21U U31A, for which, in the series with glucosamine-6-phosphate [1], the “self-cleavage kobs at 40 uM GlcN6P” value amounted to 0.000447 ± 9.2e-05 s⁻¹. Moreover, the “self-cleavage kobs at 160 uM GlcN6P” value in the series with glucosamine-6-phosphate [2] worked out at 0.00108 ± 0.0003 s⁻¹. In addition, the “self-cleavage kobs at 640 uM GlcN6P” value with glucosamine-6-phosphate [5] is 0.00614 ± 0.0013 s⁻¹. Further, the “self-cleavage kobs at 2500 uM GlcN6P” value with glucosamine-6-phosphate [3] stood at 0.0102 ± 0.0025 s⁻¹. Moreover, the “self-cleavage kobs at 10000 uM GlcN6P” value in the series with glucosamine-6-phosphate [4] was found to be 0.042 ± 0.018 s⁻¹.
In the same order, the values of U31A U47G C70U are 0.000179 ± 3.9e-05 s⁻¹, 0.000219 ± 4.3e-05 s⁻¹, 0.000928 ± 0.00014 s⁻¹, 0.000719 ± 0.00018 s⁻¹ and 0.00277 ± 0.00063 s⁻¹.
Regarding U30A G59A G60C C71A, in the series with glucosamine-6-phosphate [1], the “self-cleavage kobs at 40 uM GlcN6P” value is under 1e-05 s⁻¹. The “self-cleavage kobs at 10000 uM GlcN6P” value with glucosamine-6-phosphate [4] was under 1e-05 s⁻¹.
A53U U56A C70U: the “self-cleavage kobs at 40 uM GlcN6P” value with glucosamine-6-phosphate [1] worked out at 0.000179 ± 3.4e-05 s⁻¹. Also, the “self-cleavage kobs at 10000 uM GlcN6P” value with glucosamine-6-phosphate [4] was found to be 0.00382 ± 0.0011 s⁻¹.
For the variant G7U A52G C71U, the “self-cleavage kobs at 40 uM GlcN6P” value with glucosamine-6-phosphate [1] was under 1e-05 s⁻¹.
Turning to G37U A42U, the “self-cleavage kobs at 40 uM GlcN6P” value with glucosamine-6-phosphate [1] was under 1e-05 s⁻¹. The “self-cleavage kobs at 160 uM GlcN6P” value with glucosamine-6-phosphate [2] was under 1e-05 s⁻¹. The “self-cleavage kobs at 640 uM GlcN6P” value in the series with glucosamine-6-phosphate [5] is under 1e-05 s⁻¹.
Turning to G13A A15U G37C, the “self-cleavage kobs at 40 uM GlcN6P” value with glucosamine-6-phosphate [1] is under 1e-05 s⁻¹.
Consider A6C C10G G41A U49G G60A, for which the “self-cleavage kobs at 40 uM GlcN6P” value in the series with glucosamine-6-phosphate [1] was under 1e-05 s⁻¹.
For G35U A53G, in the series with glucosamine-6-phosphate [1], the “self-cleavage kobs at 40 uM GlcN6P” value is under 1e-05 s⁻¹. Also, the “self-cleavage kobs at 160 uM GlcN6P” value with glucosamine-6-phosphate [2] was under 1e-05 s⁻¹. Moreover, the “self-cleavage kobs at 640 uM GlcN6P” value with glucosamine-6-phosphate [5] was under 1e-05 s⁻¹. For the same variant, the “self-cleavage kobs at 2500 uM GlcN6P” value in the series with glucosamine-6-phosphate [3] is under 1e-05 s⁻¹. For the same variant, in the series with glucosamine-6-phosphate [4], the “self-cleavage kobs at 10000 uM GlcN6P” value was under 1e-05 s⁻¹.
C8U A48G: in the series with glucosamine-6-phosphate [1], the “self-cleavage kobs at 40 uM GlcN6P” value is under 1e-05 s⁻¹. Also, the “self-cleavage kobs at 160 uM GlcN6P” value in the series with glucosamine-6-phosphate [2] was under 1e-05 s⁻¹. In addition, the “self-cleavage kobs at 2500 uM GlcN6P” value with glucosamine-6-phosphate [3] was under 1e-05 s⁻¹. For the same variant, in the series with glucosamine-6-phosphate [4], the “self-cleavage kobs at 10000 uM GlcN6P” value is under 1e-05 s⁻¹.
Take A39C U54G: the “self-cleavage kobs at 160 uM GlcN6P” value with glucosamine-6-phosphate [2] came out at 0.000221 ± 9.6e-05 s⁻¹. In addition, the “self-cleavage kobs at 640 uM GlcN6P” value in the series with glucosamine-6-phosphate [5] was determined as 0.00106 ± 0.00043 s⁻¹. In the series with glucosamine-6-phosphate [4], the “self-cleavage kobs at 10000 uM GlcN6P” value came to 0.005 ± 0.0012 s⁻¹.
With U31G C50G C70U, in the series with glucosamine-6-phosphate [1], the “self-cleavage kobs at 40 uM GlcN6P” value was found to be 5.37e-05 ± 2.4e-05 s⁻¹. The “self-cleavage kobs at 10000 uM GlcN6P” value with glucosamine-6-phosphate [4] was determined as 4.81e-05 ± 1.5e-05 s⁻¹.

The record behind these values is the supplement of paper PMC7125110.
